# Several values for one entry are separate records, joined by “and”; a condition that tells them apart may be missing. Identical values can stand only once.
# Key:
# [1] = In vitro release of AZD4320 from dendrimer conjugates in PBS pH 7.4, 37 °C; conditions: for Cummulative Release % / Mean % Released: PBS 37 °C
# Experimental: In vitro release half-life was calculated by least squares fitting to a 1st order release model.
# AZD4320 release kinetics were determined in vitro under physiological conditions.
# Nanoparticles were suspended in phosphate buffered saline (PBS) pH7.4 or rat plasma with 5%
# HEPES in HPLC vials and sample temperature maintained to 37 °C using a water bath with
# continuous stirring of the sample provided by iChem explorer unit. Periodically, 5-10 µL of
# sample was injected onto the column (Acquity UPLC BEH shield RP18 1.7 µm, 4.6 x 30 mm,
# Waters), bracketed by DMA to re-dissolve any precipitated AZD4320. The percent release was
# calculated by comparing unconjugated AZD4320 peak area to total unconjugated + dendrimer-
# conjugated AZD4320 peak areas. The half-life was calculated by least squares fitting to a 1st
# OCI-LY10 xenograft = OCI-LY10 xenograft efficacy and survival; type: in vivo, C.B-17 SCID mouse; design: OCI-LY10 xenograft efficacy, individual animals: unit not given here; conditions: for OCI-LY10 xenograft efficacy, individual animals: AZD0466 103 mg/kg (30mg/kg AZD4320)
# Experimental: Female C.B.−17 SCID mice were purchased from Charles River Laboratories. Mice were 5–8 weeks old at the time of tumour implantation. All xenograft studies were conducted at our Association for the Assessment and Accreditation of Laboratory Animal Care accredited facility in Waltham, MA in accordance with ethical regulations described in the guidelines established by the internal Institutional Animal Care and Use Committee. The dendrimer conjugates were formulated in citrate/phosphate buffer pH 5.0, diluted 1:10 with 5% glucose containing 1% w/v Kolliphor HS15, and AZD4320 was formulated in 30% HP-β-CD and dosed as a weekly intravenous (IV) administration at a volume of 5 ml/kg at the indicated doses. Five million RS4;11, five million SUDHL-4 or five million OCI-LY-10 cells were injected subcutaneously in the right flank of mice in a volume of 0.1 ml. Tumour volumes (measured by caliper), animal body weight, and tumor condition were recorded twice weekly for the duration of the study. The tumour volume was calculated (taking length to be the longest diameter across the tumour and width to be the corresponding perpendicular diameter) using the formula: length (mm) x width (mm)^2/0.52. For efficacy studies, mice were randomized based on tumour volumes using stratified sampling and enrolled into control and treatment groups. Tumour growth inhibition from the start of treatment was quantified by measuring the difference in tumour volume between control and treated groups. Survival analysis was evaluated using Mantel-Cox test. Tumours were also taken for bioanalysis.
substance,measurement,setting,value
AZD4320-MIDA-PEG2100 [AZD0466],Cummulative Release %,"[1]; 0.75 h, Replicate 1",2.01%
same,Cummulative Release %,"[1]; 0.90 h, Replicate 2",2.72%
same,Cummulative Release %,"[1]; 1.05 h, Replicate 3",2.87%
same,Cummulative Release %,"[1]; 1.67 h, Replicate 1",3.95%
same,Cummulative Release %,"[1]; 1.82 h, Replicate 2",4.63%
same,Cummulative Release %,"[1]; 1.97 h, Replicate 3",5.12%
same,Cummulative Release %,"[1]; 2.60 h, Replicate 1",6.37%
same,Cummulative Release %,"[1]; 2.75 h, Replicate 2",7.07%
same,Cummulative Release %,"[1]; 2.90 h, Replicate 3",7.57%
same,Cummulative Release %,"[1]; 3.52 h, Replicate 1",8.48%
same,Cummulative Release %,"[1]; 3.67 h, Replicate 2",9.50%
same,Cummulative Release %,"[1]; 3.83 h, Replicate 3",9.95%
same,Cummulative Release %,"[1]; 4.45 h, Replicate 1",10.66%
same,Cummulative Release %,"[1]; 4.60 h, Replicate 2",11.87%
same,Cummulative Release %,"[1]; 4.75 h, Replicate 3",12.24%
same,Cummulative Release %,"[1]; 5.37 h, Replicate 1",12.82%
same,Cummulative Release %,"[1]; 5.52 h, Replicate 2",13.72%
same,Cummulative Release %,"[1]; 5.68 h, Replicate 3",14.33%
same,Cummulative Release %,"[1]; 6.30 h, Replicate 1",15.04%
same,Cummulative Release %,"[1]; 6.45 h, Replicate 2",16.29%
same,Cummulative Release %,"[1]; 6.60 h, Replicate 3",15.86%
same,Cummulative Release %,"[1]; 7.22 h, Replicate 1",15.94%
same,Cummulative Release %,"[1]; 7.37 h, Replicate 2",17.47%
same,Cummulative Release %,"[1]; 7.53 h, Replicate 3",17.99%
same,Cummulative Release %,"[1]; 8.15 h, Replicate 1",18.09%
same,Cummulative Release %,"[1]; 8.30 h, Replicate 2",19.34%
same,Cummulative Release %,"[1]; 8.45 h, Replicate 3",19.77%
same,Cummulative Release %,"[1]; 9.07 h, Replicate 1",20.00%
same,Cummulative Release %,"[1]; 9.23 h, Replicate 2",21.33%
same,Cummulative Release %,"[1]; 9.38 h, Replicate 3",21.63%
same,Cummulative Release %,"[1]; 10.00 h, Replicate 1",22.23%
same,Cummulative Release %,"[1]; 10.15 h, Replicate 2",23.21%
same,Cummulative Release %,"[1]; 10.30 h, Replicate 3",23.50%
same,Cummulative Release %,"[1]; 10.92 h, Replicate 1",23.70%
same,Cummulative Release %,"[1]; 11.08 h, Replicate 2",25.81%
same,Cummulative Release %,"[1]; 11.23 h, Replicate 3",25.99%
same,Cummulative Release %,"[1]; 11.85 h, Replicate 1",25.62%
same,Cummulative Release %,"[1]; 12.00 h, Replicate 2",26.79%
same,Cummulative Release %,"[1]; 12.15 h, Replicate 3",27.44%
same,Cummulative Release %,"[1]; 12.77 h, Replicate 1",27.74%
same,Cummulative Release %,"[1]; 12.93 h, Replicate 2",29.41%
same,Cummulative Release %,"[1]; 13.08 h, Replicate 3",29.66%
same,Cummulative Release %,"[1]; 13.70 h, Replicate 1",29.02%
same,Cummulative Release %,"[1]; 13.85 h, Replicate 2",30.77%
same,Cummulative Release %,"[1]; 14.00 h, Replicate 3",31.43%
same,Cummulative Release %,"[1]; 14.63 h, Replicate 1",30.82%
same,Cummulative Release %,"[1]; 14.78 h, Replicate 2",32.39%
same,Cummulative Release %,"[1]; 14.93 h, Replicate 3",33.56%
same,Cummulative Release %,"[1]; 15.55 h, Replicate 1",32.52%
same,Cummulative Release %,"[1]; 15.70 h, Replicate 2",34.45%
same,Cummulative Release %,"[1]; 15.85 h, Replicate 3",35.54%
same,Cummulative Release %,"[1]; 16.48 h, Replicate 1",34.39%
same,Cummulative Release %,"[1]; 16.63 h, Replicate 2",35.86%
same,Cummulative Release %,"[1]; 16.78 h, Replicate 3",36.74%
same,Cummulative Release %,"[1]; 17.40 h, Replicate 1",35.32%
same,Cummulative Release %,"[1]; 17.55 h, Replicate 2",37.92%
same,Cummulative Release %,"[1]; 17.71 h, Replicate 3",39.37%
same,Cummulative Release %,"[1]; 18.33 h, Replicate 1",37.81%
same,Cummulative Release %,"[1]; 18.48 h, Replicate 2",39.44%
same,Cummulative Release %,"[1]; 18.63 h, Replicate 3",41.92%
same,Cummulative Release %,"[1]; 19.25 h, Replicate 1",40.42%
same,Cummulative Release %,"[1]; 19.40 h, Replicate 2",41.10%
same,Cummulative Release %,"[1]; 19.56 h, Replicate 3",42.30%
same,Cummulative Release %,"[1]; 20.18 h, Replicate 1",40.20%
same,Cummulative Release %,"[1]; 20.33 h, Replicate 2",43.40%
same,Cummulative Release %,"[1]; 20.48 h, Replicate 3",44.87%
same,Cummulative Release %,"[1]; 21.10 h, Replicate 1",42.52%
same,Cummulative Release %,"[1]; 21.25 h, Replicate 2",45.67%
same,Cummulative Release %,"[1]; 21.41 h, Replicate 3",46.38%
same,Cummulative Release %,"[1]; 22.03 h, Replicate 1",45.50%
same,Cummulative Release %,"[1]; 22.18 h, Replicate 2",47.56%
same,Cummulative Release %,"[1]; 22.33 h, Replicate 3",48.29%
same,Cummulative Release %,"[1]; 22.95 h, Replicate 1",46.44%
same,Cummulative Release %,"[1]; 23.10 h, Replicate 2",48.78%
same,Cummulative Release %,"[1]; 23.88 h, Replicate 1",47.76%
same,Cummulative Release %,"[1]; 24.03 h, Replicate 2",50.99%
same,Cummulative Release %,"[1]; 24.80 h, Replicate 1",50.26%
same,Cummulative Release %,"[1]; 24.95 h, Replicate 2",53.17%
same,Mean % Released,[1]; mean time 0.90 h,2.53%
same,Mean % Released,[1]; mean time 1.82 h,4.57%
same,Mean % Released,[1]; mean time 2.75 h,7.00%
same,Mean % Released,[1]; mean time 3.67 h,9.31%
same,Mean % Released,[1]; mean time 4.60 h,11.59%
same,Mean % Released,[1]; mean time 5.52 h,13.62%
same,Mean % Released,[1]; mean time 6.45 h,15.73%
same,Mean % Released,[1]; mean time 7.37 h,17.14%
same,Mean % Released,[1]; mean time 8.30 h,19.07%
same,Mean % Released,[1]; mean time 9.23 h,20.98%
same,Mean % Released,[1]; mean time 10.15 h,22.98%
same,Mean % Released,[1]; mean time 11.08 h,25.17%
same,Mean % Released,[1]; mean time 12.00 h,26.61%
same,Mean % Released,[1]; mean time 12.93 h,28.93%
same,Mean % Released,[1]; mean time 13.85 h,30.40%
same,Mean % Released,[1]; mean time 14.78 h,32.26%
same,Mean % Released,[1]; mean time 15.70 h,34.17%
same,Mean % Released,[1]; mean time 16.63 h,35.66%
same,Mean % Released,[1]; mean time 17.55 h,37.54%
same,Mean % Released,[1]; mean time 18.48 h,39.72%
same,Mean % Released,[1]; mean time 19.40 h,41.27%
same,Mean % Released,[1]; mean time 20.33 h,42.83%
same,Mean % Released,[1]; mean time 21.25 h,44.86%
same,Mean % Released,[1]; mean time 22.18 h,47.12%
same,Mean % Released,[1]; mean time 23.03 h,47.61%
same,Mean % Released,[1]; mean time 23.95 h,49.38%
same,Mean % Released,[1]; mean time 24.88 h,51.72%
same,In vitro release half-life (t1/2) of AZD4320,"[1]; PBS pH 7.4, 37 °C, first order fit",25.5 h
same,"OCI-LY10 xenograft efficacy, individual animals",OCI-LY10 xenograft; day 18,193 and 170 and 155 and 173 and 235 and 111 and 163 and 131
same,"OCI-LY10 xenograft efficacy, individual animals",OCI-LY10 xenograft; day 21,363 and 334 and 195 and 394 and 490 and 191 and 262 and 142
same,"OCI-LY10 xenograft efficacy, individual animals",OCI-LY10 xenograft; day 25,214 and 151 and 62 and 129 and 351 and 181 and 222 and 188
same,"OCI-LY10 xenograft efficacy, individual animals",OCI-LY10 xenograft; day 28,475 and 406 and 118 and 241 and 485 and 190 and 184 and 194
same,"OCI-LY10 xenograft efficacy, individual animals",OCI-LY10 xenograft; day 32,410 and 443 and 252 and 338 and 536 and 215 and 401 and 301
same,"OCI-LY10 xenograft efficacy, individual animals",OCI-LY10 xenograft; day 35,664 and 595 and 309 and 391 and 667 and 265 and 496 and 262
same,"OCI-LY10 xenograft efficacy, individual animals",OCI-LY10 xenograft; day 39,653 and 578 and 346 and 432 and 638 and 281 and 354 and 330
same,"OCI-LY10 xenograft efficacy, individual animals",OCI-LY10 xenograft; day 42,773 and 918 and 408 and 717 and 707 and 404 and 319 and 272
same,mice with complete regressions,"OCI-LY10 xenograft; OCI-LY10, AZD0466 in combination with acalabrutinib",8/8
same,monotherapy activity,OCI-LY10 xenograft; OCI-LY10 DLBCL model,neither agent showed any demonstrable monotherapy activity

# From publication PMC7835349 (Communications Biology, 2021)
